T1: hPEPT1 receptor domain (human PEPT1, amino acid residues 391-571), His-tag fusion protein (human, UniProt P46059 391-571)
T1 construct: purified under denaturing conditions; also called recombinant hPEPT1; not shown: poly-histidine tag (pET vector) at the NH2-terminal end
T1 sequence: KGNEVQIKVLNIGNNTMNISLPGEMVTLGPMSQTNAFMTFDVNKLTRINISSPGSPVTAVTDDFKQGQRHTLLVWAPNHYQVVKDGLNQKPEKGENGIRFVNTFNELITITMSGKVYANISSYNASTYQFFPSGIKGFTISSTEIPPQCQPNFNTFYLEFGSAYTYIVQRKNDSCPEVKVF

B1: PAX38 (peptide)
peptide: SSKVSSPRDPTVPRKGGNVDYGCGHRSSARMPTSALSSITKCYTAETVESCLAKPHTENSFTNVWKDDKTLDRYANYEGCLWNATGVVVCTGDETQCYGTWVPIGLAIPENEGGGSEGGGSEGGGSEGGGTKPPEYGDTPIPGYTYINPLDGTYPPGTEQNPANPNPSLEESQPLNTFMFQNNRFRNRQGALTVYTGTVTQGTDPVKTYYQYTPVSSKAMYDAYWNGKFRDCAFHSGFNEDPFVCEYQGQSSDLPQPPVNAGGGSGGGSGGGSEGGGSEGGGSEGGGSEGGGSGGGSGSGDFDYEKMANANKGAMTENADENALQSDAKGKLDSVATDYGAAIDGFIGDVSGLANGNGATGDFAGSNSQMAQVGDGDNSPLMNNFRQYLPSLPQSVECRPFVFSAGKPYEFSIDCDKINLFRGVFAFLLYVATFMYVFSTFANILRNKES
notes: Assayed as M13 phage clone displaying the insert
B2: PAX45 (peptide)
peptide: SFQVYPDHGLERHALDGTGPLYAMPGRWIRARPQNRDRQAETVESCLAKPHTENSFTNVWKDDKTLDRYANYEGCLWNATGVVVCTGDETQCYGTWVPIGLAIPENEGGGSEGGGSEGGGSEGGGTKPPEYGDTPIPGYTYINPLDGTYPPGTEQNPANPNPSLEESQPLNTFMFQNNRFRNRQGALTVYTGTVTQGTDPVKTYYQYTPVSSKAMYDAYWNGKFRDCAFHSGFNEDPFVCEYQGQSSDLPQPPVNAGGGSGGGSGGGSEGGGSEGGGSEGGGSEGGGSGGGSGSGDFDYEKMANANKGAMTENADENALQSDAKGKLDSVATDYGAAIDGFIGDVSGLANGNGATGDFAGSNSQMAQVGDGDNSPLMNNFRQYLPSLPQSVECRPFVFSAGKPYEFSIDCDKINLFRGVFAFLLYVATFMYVFSTFANILRNKES
notes: as for B1
B3: PAX18 (peptide)
peptide: SFLRFQSPRFEDYSRTISRLRNATNPSNVSDAHNNRALAAETVESCLAKPHTENSFTNVWKDDKTLDRYANYEGCLWNATGVVVCTGDETQCYGTWVPIGLAIPENEGGGSEGGGSEGGGSEGGGTKPPEYGDTPIPGYTYINPLDGTYPPGTEQNPANPNPSLEESQPLNTFMFQNNRFRNRQGALTVYTGTVTQGTDPVKTYYQYTPVSSKAMYDAYWNGKFRDCAFHSGFNEDPFVCEYQGQSSDLPQPPVNAGGGSGGGSGGGSEGGGSEGGGSEGGGSEGGGSGGGSGSGDFDYEKMANANKGAMTENADENALQSDAKGKLDSVATDYGAAIDGFIGDVSGLANGNGATGDFAGSNSQMAQVGDGDNSPLMNNFRQYLPSLPQSVECRPFVFSAGKPYEFSIDCDKINLFRGVFAFLLYVATFMYVFSTFANILRNKES
notes: as for B1
B4: PAX43 (peptide)
peptide: RWCEKHKFTAARCSAGAGFERDASRPPQPAHRDNTNRNAAETVESCLAKPHTENSFTNVWKDDKTLDRYANYEGCLWNATGVVVCTGDETQCYGTWVPIGLAIPENEGGGSEGGGSEGGGSEGGGTKPPEYGDTPIPGYTYINPLDGTYPPGTEQNPANPNPSLEESQPLNTFMFQNNRFRNRQGALTVYTGTVTQGTDPVKTYYQYTPVSSKAMYDAYWNGKFRDCAFHSGFNEDPFVCEYQGQSSDLPQPPVNAGGGSGGGSGGGSEGGGSEGGGSEGGGSEGGGSGGGSGSGDFDYEKMANANKGAMTENADENALQSDAKGKLDSVATDYGAAIDGFIGDVSGLANGNGATGDFAGSNSQMAQVGDGDNSPLMNNFRQYLPSLPQSVECRPFVFSAGKPYEFSIDCDKINLFRGVFAFLLYVATFMYVFSTFANILRNKES
notes: as for B1
B5: 5PAX3 (peptide)
peptide: RPKNVADAYSSQDGAAAEETSHASNAARKSPKHKPLRRPAETVESCLAKPHTENSFTNVWKDDKTLDRYANYEGCLWNATGVVVCTGDETQCYGTWVPIGLAIPENEGGGSEGGGSEGGGSEGGGTKPPEYGDTPIPGYTYINPLDGTYPPGTEQNPANPNPSLEESQPLNTFMFQNNRFRNRQGALTVYTGTVTQGTDPVKTYYQYTPVSSKAMYDAYWNGKFRDCAFHSGFNEDPFVCEYQGQSSDLPQPPVNAGGGSGGGSGGGSEGGGSEGGGSEGGGSEGGGSGGGSGSGDFDYEKMANANKGAMTENADENALQSDAKGKLDSVATDYGAAIDGFIGDVSGLANGNGATGDFAGSNSQMAQVGDGDNSPLMNNFRQYLPSLPQSVECRPFVFSAGKPYEFSIDCDKINLFRGVFAFLLYVATFMYVFSTFANILRNKES
notes: as for B1
B6: PAX17 (peptide)
peptide: SQVDSFRNSFRWYEPSRALCHGCGKRDTSTTRIHNSPSDSYPTRAETVESCLAKPHTENSFTNVWKDDKTLDRYANYEGCLWNATGVVVCTGDETQCYGTWVPIGLAIPENEGGGSEGGGSEGGGSEGGGTKPPEYGDTPIPGYTYINPLDGTYPPGTEQNPANPNPSLEESQPLNTFMFQNNRFRNRQGALTVYTGTVTQGTDPVKTYYQYTPVSSKAMYDAYWNGKFRDCAFHSGFNEDPFVCEYQGQSSDLPQPPVNAGGGSGGGSGGGSEGGGSEGGGSEGGGSEGGGSGGGSGSGDFDYEKMANANKGAMTENADENALQSDAKGKLDSVATDYGAAIDGFIGDVSGLANGNGATGDFAGSNSQMAQVGDGDNSPLMNNFRQYLPSLPQSVECRPFVFSAGKPYEFSIDCDKINLFRGVFAFLLYVATFMYVFSTFANILRNKES
notes: as for B1
B7: PAX40 (peptide)
peptide: RASTQGGRGVAPEFGASVLGRGCGSATYYTNSTSCKDAMGHNYSAETVESCLAKPHTENSFTNVWKDDKTLDRYANYEGCLWNATGVVVCTGDETQCYGTWVPIGLAIPENEGGGSEGGGSEGGGSEGGGTKPPEYGDTPIPGYTYINPLDGTYPPGTEQNPANPNPSLEESQPLNTFMFQNNRFRNRQGALTVYTGTVTQGTDPVKTYYQYTPVSSKAMYDAYWNGKFRDCAFHSGFNEDPFVCEYQGQSSDLPQPPVNAGGGSGGGSGGGSEGGGSEGGGSEGGGSEGGGSGGGSGSGDFDYEKMANANKGAMTENADENALQSDAKGKLDSVATDYGAAIDGFIGDVSGLANGNGATGDFAGSNSQMAQVGDGDNSPLMNNFRQYLPSLPQSVECRPFVFSAGKPYEFSIDCDKINLFRGVFAFLLYVATFMYVFSTFANILRNKES
notes: as for B1
B8: PAX46 (peptide)
peptide: SRCTDNEQCPDTGTRSRSVSNARYFSSRLLKTHAPHRPAETVESCLAKPHTENSFTNVWKDDKTLDRYANYEGCLWNATGVVVCTGDETQCYGTWVPIGLAIPENEGGGSEGGGSEGGGSEGGGTKPPEYGDTPIPGYTYINPLDGTYPPGTEQNPANPNPSLEESQPLNTFMFQNNRFRNRQGALTVYTGTVTQGTDPVKTYYQYTPVSSKAMYDAYWNGKFRDCAFHSGFNEDPFVCEYQGQSSDLPQPPVNAGGGSGGGSGGGSEGGGSEGGGSEGGGSEGGGSGGGSGSGDFDYEKMANANKGAMTENADENALQSDAKGKLDSVATDYGAAIDGFIGDVSGLANGNGATGDFAGSNSQMAQVGDGDNSPLMNNFRQYLPSLPQSVECRPFVFSAGKPYEFSIDCDKINLFRGVFAFLLYVATFMYVFSTFANILRNKES
notes: as for B1
B9: PAX35 (peptide)
peptide: RSITDGGINEVDLSSVSNVLENANSHRAYRKHRPTLKRPAETVESCLAKPHTENSFTNVWKDDKTLDRYANYEGCLWNATGVVVCTGDETQCYGTWVPIGLAIPENEGGGSEGGGSEGGGSEGGGTKPPEYGDTPIPGYTYINPLDGTYPPGTEQNPANPNPSLEESQPLNTFMFQNNRFRNRQGALTVYTGTVTQGTDPVKTYYQYTPVSSKAMYDAYWNGKFRDCAFHSGFNEDPFVCEYQGQSSDLPQPPVNAGGGSGGGSGGGSEGGGSEGGGSEGGGSEGGGSGGGSGSGDFDYEKMANANKGAMTENADENALQSDAKGKLDSVATDYGAAIDGFIGDVSGLANGNGATGDFAGSNSQMAQVGDGDNSPLMNNFRQYLPSLPQSVECRPFVFSAGKPYEFSIDCDKINLFRGVFAFLLYVATFMYVFSTFANILRNKES
notes: as for B1

The assay has as its target T1, hPEPT1 receptor domain (human PEPT1, …). The experiment in a line: phage ELISA, plate coated with hPEPT1 domain. Here is the method:
6.6. Receptor ELISA Procedure 96 well plates were coated overnight with GIT receptor, BSA and, optionally, IDE (insulin degrading enzyme, an irrelevant His-fusion protein)or hTF. The plates were blocked for one hour with 0.5% BSA-PBS. After clarification, the amplified phage were diluted 1:100 in […] plus 0.05% Tween 20 in PBS and added to the plates. Following incubation of the plates on a rotator for 1 to 2 hours, the plates were washed 5 times with 1% BSA plus 0.05% Tween 20 in PBS. […] After the plates were washed 5 times, as described above, TMB substrate was added to the wells. The plates were read at 650 nm absorbance.
The molecule B1 gave an OD of 0.292 OD.

With B2, the OD amounted to 0.419 OD.

As to B3, the OD came to 0.416 OD.

As for B4, the OD was 0.345 OD.

In turn, B5 gave an OD of 0.173 OD.

Molecule B6 registered an OD of 0.514 OD.

As for B7, the OD is 0.461 OD.

B8: the OD turned out to be 0.429 OD.

Consider B9, for which the OD is 0.474 OD.

The values are drawn from US6703362 (CYTOGEN, dated 2004).
